Source: paper PMC11328874 (2024)

Target: T1, FLAG-Eya3 (human), wild type, Q99504
T1 chain: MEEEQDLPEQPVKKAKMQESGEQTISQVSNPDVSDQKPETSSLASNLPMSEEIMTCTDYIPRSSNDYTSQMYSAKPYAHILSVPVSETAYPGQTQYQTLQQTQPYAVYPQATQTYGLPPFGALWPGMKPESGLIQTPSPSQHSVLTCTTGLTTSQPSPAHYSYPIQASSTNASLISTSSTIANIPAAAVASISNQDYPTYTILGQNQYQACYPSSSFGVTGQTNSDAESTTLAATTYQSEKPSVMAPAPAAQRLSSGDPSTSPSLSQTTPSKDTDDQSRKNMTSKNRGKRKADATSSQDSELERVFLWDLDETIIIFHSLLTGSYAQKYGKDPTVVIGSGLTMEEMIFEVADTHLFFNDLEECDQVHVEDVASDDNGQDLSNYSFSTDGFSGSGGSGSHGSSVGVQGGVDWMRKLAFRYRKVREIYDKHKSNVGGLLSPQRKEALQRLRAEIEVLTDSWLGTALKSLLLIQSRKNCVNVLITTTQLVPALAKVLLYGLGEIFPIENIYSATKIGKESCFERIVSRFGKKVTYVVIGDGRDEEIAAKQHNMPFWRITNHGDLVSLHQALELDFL
Assay: FLAG co-IP followed by Western blot, band quantification
Conditions: chain shown with the change; cotransfected HEK cells; three biological replicates; parent: est. 1.0; read off a plot

ratio to parent: 0.58
B1: HA-tagged B55α (HA-B55α), wild type, P63151 F84-L90/GG (protein)
chain: MAGAGGGNDIQWCFSQVKGAVDDDVAEADIISTVEFNHSGELLATGDKGGRVVIFQQEQENKIQSHSRGEYNVYSTFQSHEPEGGEIEEKINKIRWLPQKNAAQFLLSTNDKTIKLWKISERDKRPEGYNLKEEDGRYRDPTTVTTLRVPVFRPMDLMVEASPRRIFANAHTYHINSISINSDYETYLSADDLRINLWHLEITDRSFNIVDIKPANMEELTEVITAAEFHPNSCNTFVYSSSKGTIRLCDMRASALCDRHSKLFEEPEDPSNRSFFSEIISSISDVKFSHSGRYMMTRDYLSVKIWDLNMENRPVETYQVHEYLRSKLCSLYENDCIFDKFECCWNGSDSVVMTGSYNNFFRMFDRNTKRDITLEASRENNKPRTVLKPRKVCASGKRKKDEISVDSLDFNKKILHTAWHPKENIIAVATTNNLYIFQDKVN
